Assay results published in PMC4866608 (Archives of biochemistry and biophysics, 2015).

Assays:
[1] = molecular target: 2-hydroxymuconate semialdehyde dehydrogenase (NahI) from Pseudomonas putida G7, His-tag removed (GH-NahI) (Pseudomonas putida G7); assay: dynamic light scattering
[2] = molecular target: 2-hydroxymuconate semialdehyde dehydrogenase (NahI) from Pseudomonas putida G7, His-tag removed (GH-NahI) (Pseudomonas putida G7); assay: small-angle X-ray scattering
NahI (GH-NahI) = molecular target: T1, NahI (GH-NahI) (Pseudomonas putida, UniProt Q1XGK8); assay: CD thermal denaturation at […] nm; assay type: binding; details: 50 mM sodium phosphate pH 7.4, 50 mM NaCl, 0.3 mg/mL protein; two-step denaturation
T1 sequence (Q1XGK8 1-486): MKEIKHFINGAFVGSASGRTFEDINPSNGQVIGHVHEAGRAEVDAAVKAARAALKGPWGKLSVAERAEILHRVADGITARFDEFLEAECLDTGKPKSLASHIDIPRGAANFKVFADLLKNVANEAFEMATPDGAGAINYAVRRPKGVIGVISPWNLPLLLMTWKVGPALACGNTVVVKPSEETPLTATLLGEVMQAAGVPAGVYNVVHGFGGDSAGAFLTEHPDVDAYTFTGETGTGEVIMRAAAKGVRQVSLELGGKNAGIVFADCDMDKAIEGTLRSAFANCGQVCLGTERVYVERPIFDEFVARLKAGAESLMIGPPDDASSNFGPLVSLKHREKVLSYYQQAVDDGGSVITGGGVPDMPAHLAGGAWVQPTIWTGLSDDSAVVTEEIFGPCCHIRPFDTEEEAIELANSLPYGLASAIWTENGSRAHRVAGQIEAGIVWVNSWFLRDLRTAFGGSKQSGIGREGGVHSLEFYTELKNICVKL

| stoichiometry N [1] | stoichiometry N [2] | second transition temperature of the NAD+ complex (apo enzyme 73.9 °C) (NahI (GH-NahI)) | Compound |
| --- | --- | --- | --- |
| 3 | 4 |  | 2-hydroxymuconate semialdehyde dehydrogenase (NahI) from Pseudomonas putida G7, His-tag removed (GH-NahI) (enzyme) |
|  |  | 76.7 °C | NC(=O)c1ccc[n+]([C@@H]2O[C@H](COP(=O)(O)OP(=O)(O)OC[C@H]3O[C@@H](n4cnc5c(N)ncnc54)[C@H](O)[C@@H]3O)[C@@H](O)[C@H]2O)c1 [NAD^+] |
